Data reported in patent publication US20080166293A1.

Target: human transferrin receptor (hTfR) (human) (UniProt P02786)
Assay: Scatchard analysis, 125I-labelled protein (tyrosine of the peptide iodinated) on CEF+hTfR cells on ice

human transferrin receptor (hTfR) (human), sequence (P02786 whole entry): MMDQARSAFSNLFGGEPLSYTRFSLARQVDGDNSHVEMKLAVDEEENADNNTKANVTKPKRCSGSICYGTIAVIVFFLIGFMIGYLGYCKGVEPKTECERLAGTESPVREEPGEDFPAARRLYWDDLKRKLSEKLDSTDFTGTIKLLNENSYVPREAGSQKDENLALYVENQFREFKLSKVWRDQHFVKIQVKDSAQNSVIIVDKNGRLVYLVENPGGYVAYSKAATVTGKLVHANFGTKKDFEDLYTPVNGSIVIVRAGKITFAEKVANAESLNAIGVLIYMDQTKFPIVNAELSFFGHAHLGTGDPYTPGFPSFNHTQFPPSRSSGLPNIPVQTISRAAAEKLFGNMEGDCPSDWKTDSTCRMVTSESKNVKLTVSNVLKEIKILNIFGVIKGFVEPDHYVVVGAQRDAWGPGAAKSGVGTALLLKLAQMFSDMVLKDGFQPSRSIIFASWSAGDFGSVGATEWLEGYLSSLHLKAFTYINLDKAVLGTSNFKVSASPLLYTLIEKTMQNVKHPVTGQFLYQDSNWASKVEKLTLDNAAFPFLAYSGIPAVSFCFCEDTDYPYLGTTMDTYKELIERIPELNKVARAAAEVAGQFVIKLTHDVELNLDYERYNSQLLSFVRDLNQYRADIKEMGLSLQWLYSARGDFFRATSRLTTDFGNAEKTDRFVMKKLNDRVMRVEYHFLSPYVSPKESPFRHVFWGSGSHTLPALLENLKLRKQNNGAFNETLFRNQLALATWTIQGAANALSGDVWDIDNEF

With GFP-HAIYPRH (Seq. ID No. 1) the Kd was 360 µM.
